Test results published in paper PMC4069078.
Blank lines part the entries; values can stand above or below the substance they belong to.

Tests used:
[1] = target: ChiAVD–G42A (chicken | not stated) (UniProt P56734); test: dynamic light scattering; 50 mM NaH2PO4/Na2HPO4, 100 mM NaCl, pH 7 at 25°C; volume distribution
[2] = target: ChiAVD–G42F (chicken | not stated) (UniProt P56734); test: as above
[3] = target: Chimeric avidin ChiAVD(I117Y) (chicken | not stated) (UniProt P02701); test: as above
[4] = target: Chimeric avidin ChiAVD(I117Y) (chicken | not stated) (UniProt P02701); test: solution NMR structure; biotin-bound ChiAVD, 13C/15N-labelled, 58°C, 800 MHz; intersubunit NOE peaks identified by inspection of avidin crystal structures and manually assigned; RDCs in bicelles at 40°C

stoichiometry N [1]: 4
Substance: ChiAVD–G42A (from UniProt P56734 62-82; P02701 85-152)

stoichiometry N [2]: 4
Substance: ChiAVD–G42F (from UniProt P56734 62-82; P02701 85-152)

stoichiometry N [3]: 4
Substance: Chimeric avidin ChiAVD(I117Y) (from UniProt P02701 85-152)
stoichiometry N [4]: 4
